Measurements as given in paper PMC3732869.

Biological target: PTH receptors on UMR 106 cells (rat (endogenous in UMR 106)) (UniProt P25961)
UniProt P25961, sequence (P25961 27-591): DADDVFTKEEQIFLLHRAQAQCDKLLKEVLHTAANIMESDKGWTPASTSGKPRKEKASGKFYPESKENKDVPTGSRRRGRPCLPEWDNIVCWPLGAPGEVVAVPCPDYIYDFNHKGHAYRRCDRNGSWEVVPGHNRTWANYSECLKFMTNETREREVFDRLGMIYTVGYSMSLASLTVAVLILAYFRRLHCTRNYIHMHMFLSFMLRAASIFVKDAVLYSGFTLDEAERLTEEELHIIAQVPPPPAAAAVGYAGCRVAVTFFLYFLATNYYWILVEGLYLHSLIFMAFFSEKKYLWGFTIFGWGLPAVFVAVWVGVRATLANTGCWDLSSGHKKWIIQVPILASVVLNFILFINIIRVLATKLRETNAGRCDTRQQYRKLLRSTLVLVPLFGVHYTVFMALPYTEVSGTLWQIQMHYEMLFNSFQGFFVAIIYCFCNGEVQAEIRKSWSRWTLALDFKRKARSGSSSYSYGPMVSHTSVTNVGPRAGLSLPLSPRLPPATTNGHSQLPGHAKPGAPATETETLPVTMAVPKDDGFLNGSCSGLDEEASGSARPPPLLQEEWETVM

recombinant human parathyroid hormone (rhPTH 1-34) (peptide)
potency in the cAMP bioassay on UMR 106 cells, against the standard: 99.7%
